How the values were obtained:
[1] = target: T1, LPL inhibited by apoC-III (Bos taurus, UniProt P11151); assay: LPL activation assay using apoC-III transgenic mice plasma as substrate; format: biochemical; set-up: host or cells: apoC-III comes with the plasma of apoC-III transgenic C57Bl/6 mice; settings: all three transgenic mice plasma samples, FIG. 33
T1 sequence (P11151 29-478): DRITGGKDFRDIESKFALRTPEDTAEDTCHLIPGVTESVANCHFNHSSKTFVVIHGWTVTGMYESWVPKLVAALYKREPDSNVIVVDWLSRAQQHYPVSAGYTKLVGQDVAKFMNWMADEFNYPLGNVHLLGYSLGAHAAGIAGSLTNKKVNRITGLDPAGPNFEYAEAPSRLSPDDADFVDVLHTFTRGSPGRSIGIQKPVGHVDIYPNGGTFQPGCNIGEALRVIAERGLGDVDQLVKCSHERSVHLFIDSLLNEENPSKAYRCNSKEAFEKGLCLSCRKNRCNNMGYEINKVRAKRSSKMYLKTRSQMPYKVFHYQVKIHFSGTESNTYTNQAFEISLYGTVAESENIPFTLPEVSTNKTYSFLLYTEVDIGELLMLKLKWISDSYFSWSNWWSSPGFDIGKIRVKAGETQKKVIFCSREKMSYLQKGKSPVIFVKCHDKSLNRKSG
Protocol: (§1) LPL activity assay: 10 μL of Intralipid, human plasma sample, or mouse plasma sample was added in each well using repeater pipette. 10 μL (or 15 μL in the wells with no LPL control) of PBS and 10 μL of 1% BSA was added in each well using repeater pipette. 10 μL of peptides were added to corresponding wells in vertical triplicates (lowest concentration is on a left, highest is on the right). The plate was spun down at 1000 RPM for 10 seconds to mix and to remove the solutions from the wall of each well. The plate was put on ice and 5 μL of LPL was added using repeater pipette. The plate was spun down again at 1000 RPM for 10 seconds. The plate was covered and put back on ice for an incubation of 30 min. The plate was then moved to 37° C. and incubated for 1 hour.
(§2) Free fatty acids (NEFA) assay: 45 μL of 5 nmoL standard and 0 nmoL control (0.2% BSA) were added to corresponding wells. 225 μL of reagent A was added in each well using the reagent tray and 12-channel pipette. The plate was incubated for 10 min before 75 μL of reagent B was added to each well using the reagent tray and 12-channel pipette. The plate was not covered due to the high volume. The absorbance at 550 nm and 660 nm was measured.
LPL assay was performed using Intralipid, high TG human plasma (1:50 dilution), or apoC-III transgenic mouse plasma (1:50 dilution). […]

[2] = target: T1, LPL inhibited by apoC-III; assay: LPL assay using human apoC-II deficient plasma as substrate with recombinant apoC-III; format: biochemical; settings: 25 μM apoC-III, FIG. 50
Protocol: as §1, §2
LPL assay was performed using Intralipid, high TG human plasma (1:50 dilution), or apoC-III transgenic mouse plasma (1:50 dilution). When Intralipid was used as a substrate, 25 or 50 μM recombinant ApoC-III was added as an inhibitor. When the high TG human plasma was used as a substrate, 25 or 50 μM recombinant ApoC-III was added as an inhibitor with or without pre-incubation at 37° C. for 1 hour. An apoC-II mimetic peptide was added at various concentrations.

[3] = tested on: apoC-II knockout mice; assay: serum TG of apoC-II knockout mice after Intralipid injection; format: in vivo; settings: peptide IP 1 hour after Intralipid, 5 and 10 μmole/kg, FIG. 37B
Protocol: C57Bl/6 mice (wild-type), apoC-II knockout (apoC-II KO) mice, and apoC-III transgenic mice were used for in vivo study. The C57Bl/6 mice (wild-type) were purchased from Taconic Biosciences Inc. The apoC-II KO mice were created as described in Sakurai et al., J Pharmacol Exp Ther 356:341-353, 2016. The apoC-III transgenic mice were generated by overexpressing human apoC-III in C57Bl/6 mice. See Qu et al., J. Lipid Res. 48:1476-1487, 2007.
Mice were fasted overnight (approximately 12 hours) before the study and 6 hours during the study, the next day. The apoC-II mimetic peptides were synthetically produced and free of biological contamination (not available as FDA approved compounds/treatment). Peptides were produced and used in sterile conditions and filtered by 0.2 nm filter before injections in a single dose 1-10 μmol/kg body weight (B. W.) administered either subcutaneous injection (S.Q. or S.C.), intraperitoneal injection (I.P.) or intravenous injection (I.V.) (in a sterile, pharmaceutical grade PBS solution at a volume ≤200 μL) as described in Sakurai et al., J Pharmacol Exp Ther 356:341-353, 2016. […]

[4] = target: T2, bovine LPL (Bos taurus, UniProt P11151); assay: in vitro LPL assay using apoC-II deficient patient sera as substrate; format: biochemical
T2 sequence (P11151 29-478): T1 sequence (P11151 29-478)
In short: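 Bovine LPL incubated with peptide and substrate (3 mg/dL TG Intralipid or 1:100-diluted apoC-II-deficient human serum) in PBS with BSA, 30 min on ice then 1 h at 37° C. Released free fatty acids quantified by colorimetric NEFA assay (absorbance 550 and 660 nm) against an oleic acid standard.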

Row | LPL activation / TG hydrolysis ([4]; FIG. 52) | Sequence | effect on inhibition by elevated expression of apoC-III [1] | effect on inhibition by elevated expression of apoC-III ([1]; listed as ApoC-II-a) | effect on inhibition of LPL by apoC-III [2] | serum TG increase after Intralipid injection [3] | LPL activation compared with full length apoC-II protein ([4]; 10 pM to 10 μM, FIG. 51)
1 | – | DWLKAFYDKVAEKLKEAFPAMSTYTGIFTDQVLSVLKGEE (listed as Homo sapiens) [apoC-II-a, excluded from the claimed peptides] | overcame the inhibitory effect of elevated expression of apoC-III | overcomes the inhibitory effect of elevated expression of apoC-III | – | – | –
2 | activated LPL in vitro | DYLKEVFEKLRDLYEKFTPAVSTYTGIFTDQVLSVLKGEE [Delta6PV] | – | – | overcame the inhibitory effect of apoC-III and facilitated lipolysis | the TG increase was significantly reduced | activated LPL in vitro more efficiently than the full length apoC-II protein
